Entries after “also recorded” stand apart in the source; their conditions may differ.
B1: single mutant (E201K): GST-maspin point mutant E201K (protein, UniProt P36952 1-375, looked up, variant E201K)
Serpin B5: MDALQLANSAFAVDLFKQLCEKEPLGNVLFSPICLSTSLSLAQVGAKGDTANEIGQVLHFENVKDVPFGFQTVTSDVNKLSSFYSLKLIKRLYVDKSLNLSTEFISSTKRPYAKELETVDFKDKLEETKGQINNSIKDLTDGHFENILADNSVNDQTKILVVNAAYFVGKWMKKFSESETKECPFRVNKTDTKPVQMMNMKATFCMGNIDSINCKIIELPFQNKHLSMFILLPKDVEDESTGLEKIEKQLNSESLSQWTNPSTMANAKVKLSIPKFKVEKMIDPKACLENLGLKHIFSEDTSDFSGMSETKGVALSNVIHKVCLEITEDGGDSIEVPGARILQHKDELNADHPFIYIIRHNKTRNIIFFGKFCSP
modifications: GST tag
B2: GST-maspin: Glutathione S-transferase (GST)-tagged recombinant wild-type maspin; 125I-labeled for binding assay (protein, UniProt P36952 1-375, looked up)
Serpin B5: MDALQLANSAFAVDLFKQLCEKEPLGNVLFSPICLSTSLSLAQVGAKGDTANEIGQVLHFENVKDVPFGFQTVTSDVNKLSSFYSLKLIKRLYVDKSLNLSTEFISSTKRPYAKELETVDFKDKLEETKGQINNSIKDLTDGHFENILADNSVNDQTKILVVNAAYFVGKWMKKFSESETKECPFRVNKTDTKPVQMMNMEATFCMGNIDSINCKIIELPFQNKHLSMFILLPKDVEDESTGLEKIEKQLNSESLSQWTNPSTMANAKVKLSIPKFKVEKMIDPKACLENLGLKHIFSEDTSDFSGMSETKGVALSNVIHKVCLEITEDGGDSIEVPGARILQHKDELNADHPFIYIIRHNKTRNIIFFGKFCSP
modifications: GST tag; 125I label
B3: triple mutant (E201K, K268E, K270E): GST-maspin mutant E201K, K268E, K270E (protein, UniProt P36952 1-375, looked up, variant E201K K268E K270E)
Serpin B5: MDALQLANSAFAVDLFKQLCEKEPLGNVLFSPICLSTSLSLAQVGAKGDTANEIGQVLHFENVKDVPFGFQTVTSDVNKLSSFYSLKLIKRLYVDKSLNLSTEFISSTKRPYAKELETVDFKDKLEETKGQINNSIKDLTDGHFENILADNSVNDQTKILVVNAAYFVGKWMKKFSESETKECPFRVNKTDTKPVQMMNMKATFCMGNIDSINCKIIELPFQNKHLSMFILLPKDVEDESTGLEKIEKQLNSESLSQWTNPSTMANAEVELSIPKFKVEKMIDPKACLENLGLKHIFSEDTSDFSGMSETKGVALSNVIHKVCLEITEDGGDSIEVPGARILQHKDELNADHPFIYIIRHNKTRNIIFFGKFCSP
modifications: GST fusion
B4: double mutant (K268E, K270E): GST-maspin mutant K268E, K270E (protein, UniProt P36952 1-375, looked up, variant K268E K270E)
Serpin B5: MDALQLANSAFAVDLFKQLCEKEPLGNVLFSPICLSTSLSLAQVGAKGDTANEIGQVLHFENVKDVPFGFQTVTSDVNKLSSFYSLKLIKRLYVDKSLNLSTEFISSTKRPYAKELETVDFKDKLEETKGQINNSIKDLTDGHFENILADNSVNDQTKILVVNAAYFVGKWMKKFSESETKECPFRVNKTDTKPVQMMNMEATFCMGNIDSINCKIIELPFQNKHLSMFILLPKDVEDESTGLEKIEKQLNSESLSQWTNPSTMANAEVELSIPKFKVEKMIDPKACLENLGLKHIFSEDTSDFSGMSETKGVALSNVIHKVCLEITEDGGDSIEVPGARILQHKDELNADHPFIYIIRHNKTRNIIFFGKFCSP
modifications: GST fusion

How the values were obtained:
[1] = test system: MCF10A cells; assay: Adhesion assay of MCF10A cells on self-deposited (endogenous) matrix; format: cell-based, human; conditions: for effect of maspin-derived competitive peptide on MCF10A cell adhesion: cells pre-incubated with peptide, adhesion measured after 30 min, self-deposited matrix; for effect of GST-maspin mutant on MCF10A cell adhesion: compared to wild-type GST-maspin; for effect of GST-maspin mutant on MCF10A cell adhesion / reduction of MCF10A cell adhesion compared to WT GST-maspin: endogenous matrix; for reduction of MCF10A cell adhesion compared to WT GST-maspin: recombinant protein
Description: Assays utilizing endogenous ECM proteins generated by MCF10A cells were performed as previously described (Langhofer et al. (1993) J Cell Sci 105 (Pt 3), 753-764; herein incorporated by reference in its entirety). MCF10A cells were plated in 96-well dishes and allowed to reach confluence. Cells were washed with PBS and treated for 5 min with fresh sterile 20 mM NH4OH, followed by extensive water washes. Wells were blocked with heat-denatured BSA (10 mg/ml) for 1 hr at room temperature. Subconfluent cultures were trypsinized, washed with 37° C. serum-free DMEM/F12 medium, and incubated with either antibodies or recombinant proteins (500 nM) for 30 min at 37° C. (when assaying endogenous maspin enzyme-free cell dissociation solution was used instead of trypsin). In all assays, 2.0×10^4 cells were plated in triplicates and allowed to adhere for 30 min at 37° C. The GST protein was used as a control. Wells were washed with 37° C. serum-free DMEM/F12 and adhered cells were fixed with 5% gluteraldehyde and stained with crystal violet dye. Cell adhesion was determined by the reading at 590 nm subtracted by the blank value (determined by BSA-coated wells, 5% of maximal cell adhesion). Cell adhesion was plotted as percentage of the corresponding control value. Cell surface stripping of uPA from uPAR was conducted as previously described (Stoppelli et al. (1986) Cell 45, 675-684; herein incorporated by reference in its entirety). Subconfluent cultures were washed twice with DMEM/F12 supplemented with 20 mM HEPES and 1 mg/ml BSA. Then, cells were incubated with 50 mM glycine-HCl (pH 3.0) with 100 mM NaCl at 25° C. for 2 min and the reaction was halted by neutralizing with 500 mM HEPES (pH 7.4). In the function blocking studies, cells were first incubated with the function blocking antiuPAR or control rabbit IgG for 10 min, uPA and recombinant GST-maspin was added for another 20 min.

[2] = test system: HUVEC endothelial cells; assay: HUVEC tube formation assay on MatriGel; format: cell-based; conditions: for effect on HUVEC tube formation: 1.0 uM; for potency on tube angiogenesis: compared to the G-Helix peptide or GST-maspin (FIG. 7)
Description: HUVECs were plated on MatriGel for tube formation assay. Various peptides were tested for the potency on tube angiogenesis.
HUVEC endothelial cells were used to test the effect of synthetic maspin peptides on HUVEC tube formation assay in cell culture systems. Random peptide was used as a negative control and maspin G-helix peptide as a positive control. G-Helix was previously found to be effective in inhibiting endothelial cell migration, thereby mimicking maspin effect against angiogenesis. […] At 1.0 uM, G-helix was not effective.

[3] = test system: WT MEF cell surface; assay: 125I-GST-maspin binding to wild type MEF cell surface; design: species or system mouse; conditions: WT MEFs; 4° C., 90 min; <500 nM
Description: (§1) Bacterial recombinant GST-maspin was labeled with ^125I as described previously (Conlon, M. (2002) Preparation of ^125I-Labeled Peptides and Proteins with High Specific Activity using IODO-GEN, 2nd Edition Ed. The Protein Protocols Handbook (Walker, J. M., Ed.), Humana Press Inc, Totowa, N.J.; herein incorporated by reference in its entirety). Wild type (WT) and uPAR−/− mouse embryo fibroblasts (MEFs) (5.0×10^4 cells) were cultured in DMEM with 10% FBS on 96-well plate overnight. Cells were chilled on ice for 30 min, washed three times with ice-cold DMEM, and then blocked on ice for 60 min using blocking buffer (DMEM containing 5% heat inactivated BSA). MEFs were incubated with increasing concentrations of ^125I-GST-maspin in blocking buffer at 4° C. for 90 min. After incubation, unbound ^125I-GST-maspin protein was removed by washing three times with blocking buffer. Specific ^125I-GST-maspin binding was determined by subtracting the detected radioactivity by the nonspecific binding (determined in the presence of a 50-fold excess of non-labeled GST-maspin). In the studies evaluating the uPA/uPAR interactions, ^125I-GST-maspin was treated with ABS4A and S-20 (Santa Cruz) antibodies, which block the RCL and N-terminal domains, prior to adding to WT MEF cells. In one set, WT MEF cells were treated with an anti-mouse uPAR antibody (R&D), which blocks uPA binding to uPAR. […]

[4] = test system: uPAR-/- MEFs; assay: 125I-GST-maspin binding to uPAR-/- MEF cell surface; design: species or system mouse; conditions: 4° C., 90 min, <500 nM
Description: as §1

Row | Molecule | effect of maspin-derived competitive peptide on MCF10A cell adhesion [1] | effect of GST-maspin mutant on MCF10A cell adhesion [1] | reduction of MCF10A cell adhesion compared to WT GST-maspin [1] | further results
1 | NPSTMANAKVKLSIPK (listed as Homo sapiens) [peptide 260-275] | inhibited cell adhesion |  |  | effect of maspin-derived competitive peptide on MCF10A cell adhesion ([1]; listed as 260-275 peptide): reduced
2 | peptide 181-202: competitive peptide corresponding to maspin amino acid residues 181-202 (KECPFRVNKTDTKPVQMMNMEA; UniProt P36952 181-202, looked up, fragment) | inhibited cell adhesion; also recorded: competed with GST-maspin |  |  | 
3 | TDTKPVQMMNMEATFCMGNIDSI (listed as Homo sapiens) [190-211] | inhibited cell adhesion; also recorded: competed with GST-maspin |  |  | 
4 | STANAKVKLSIP (listed as Homo sapiens) [peptide X, synthetic maspin mimetic peptide] |  |  |  | effect on HUVEC tube formation [2]: highly effective; potency on tube angiogenesis [2]: highly potent
5 | TANAEVKLSIPK (listed as Homo sapiens) [peptide Y, synthetic maspin mimetic peptide] |  |  |  | effect on HUVEC tube formation [2]: highly effective; potency on tube angiogenesis [2]: highly potent
6 | peptide 169-189: peptide corresponding to maspin residues 169-189 (s3C) (GKWMKKFSESETKECPFRVNK; UniProt P36952 169-189, looked up, fragment) | not s3C (peptide 169-189) was important |  |  | 
7 | B1 |  | inhibited cell adhesion; also recorded: significantly reduced | 16% | 
8 | B2 |  |  |  | specific 125I-GST-maspin binding to cell surface [3]: displayed specific 125I-GST-maspin binding; specific 125I-GST-maspin binding to cell surface [4]: absent of any specific 125I-GST-maspin binding; maspin-induced MCF10A cell adhesion after stripping endogenous uPA ([1]; endogenous uPA acid-stripped before GST-maspin): substantially blocks; maspin-mediated adhesion of uPA-stripped MCF10A cells after addition of exogenous uPA ([1]; uPA acid-stripped, exogenous uPA 800 nM): 154.06 % of GST control
9 | B3 |  | inhibited cell adhesion | approximately 28% | 
10 | B4 |  | inhibited cell adhesion | 17% | effect of GST-maspin mutant on MCF10A cell adhesion ([1]; listed as double mutant GST maspin (K268E, K270E)): reduced

Reference: US9701733B2, “Maspin-based treatment of cancer” (Northwestern University, priority 2011, dated 2017)
